In experiment [1] the target is Abdala (SARS-CoV-2 spike receptor-binding domain vaccine antigen produced in Pichia pastoris) (SARS-CoV-2 (Wuhan-Hu-1)) (UniProt P0DTC2). As to the kind of experiment: mass photometry.
The target of experiment [2] is monomeric ACE2 (a.a 19-611), C-terminally His-tagged (human) (UniProt Q9BYF1). As to the kind of experiment: mass photometry.
Chain of monomeric ACE2 (a.a 19-611), C-terminally His-tagged (human) (Q9BYF1 19-611): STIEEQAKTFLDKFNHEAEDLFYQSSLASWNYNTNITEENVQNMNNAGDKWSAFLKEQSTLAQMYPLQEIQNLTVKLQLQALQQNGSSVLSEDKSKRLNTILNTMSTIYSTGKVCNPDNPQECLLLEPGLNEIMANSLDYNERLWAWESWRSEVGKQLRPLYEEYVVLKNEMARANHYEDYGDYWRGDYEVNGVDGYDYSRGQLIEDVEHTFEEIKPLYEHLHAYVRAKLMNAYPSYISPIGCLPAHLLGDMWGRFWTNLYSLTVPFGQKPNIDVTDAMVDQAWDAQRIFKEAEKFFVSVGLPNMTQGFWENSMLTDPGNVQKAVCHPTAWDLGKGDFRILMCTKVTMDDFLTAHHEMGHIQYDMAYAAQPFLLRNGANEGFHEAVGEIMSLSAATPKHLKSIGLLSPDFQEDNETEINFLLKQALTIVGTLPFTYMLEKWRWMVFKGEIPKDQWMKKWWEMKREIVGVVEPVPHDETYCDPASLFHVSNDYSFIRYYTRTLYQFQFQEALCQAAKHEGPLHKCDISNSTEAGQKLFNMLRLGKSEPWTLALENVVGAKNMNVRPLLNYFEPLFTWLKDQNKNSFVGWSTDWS

By stoichiometry N is commonly meant the number of molecules, sites or subunits per partner or assembly. Broadly, the Kd is a measure of binding affinity in units of concentration. A high value points to a looser complex. Turning to “Abdala (SARS-CoV-2 spike receptor-binding domain vaccine antigen produced in Pichia pastoris) (from UniProt P0DTC2 319-541) (domain or fragment)”, in experiment [1], the percent dimeric species was 5.6% and the stoichiometry N was determined as 2. In experiment [2], the dissociation constant Kd is 55.5 nM.

(Values after paper PMC11758712.)
